The text below walks through data of patent US20260234116A1, “CYTOTOXIC EPOXYKETONE COMPOUNDS, PRECURSORS, COMPOSITIONS, AND METHODS OF USE” (Memorial Sloan-Kettering Cancer Center, priority 2023, published 2026).

Data set [1] addresses T1, EpnF (Streptomyces hygroscopicus, UniProt V5RMU9). Kind of data set: Semiquantitative epoxide capture assay (EpnF-catalyzed epoxyketone formation). In kind it is biochemical. Conditions: 1 μM EpnF; for EpnF-catalyzed conversion to epoxyketone (epoxide capture): 240 μM β-ketoacid substrate (FIG. 2). Here is the method:
Recombinant EpnF was diluted to 1 μM in 180 μL EpnF Buffer in an 1.5 mL Eppendorf tube. The β-ketoacid 11 was added at various concentrations to a total reaction volume of 200 μL. The mixture was incubated in a heated shaker at 37° C. and 225 rpm for 1 h. The reaction mixture (30 μL×3 technical replicates) was transferred to a white, opaque 96-well plate (PerkinElmer, OptiPlate-96). Each plate also contained 30 μL×3 technical replicates of EpnF Buffer as a negative control. To each well, 15 μL of 125 mM nicotinamide in EpnF Buffer was added and mixed by pipetting. The plate was sealed with an adhesive foil cover (VWR Adhesive Foil for Microplates) and heated in an oven at 80° C. for 1 h. The plate was cooled to rt and 25 μL of 15% (v/v) acetophenone in EtOH and 25 μL of 1 M potassium hydroxide in EtOH were added to each well, then mixed by pipetting. The plate was cooled on ice for 10 min, then 125 μL formic acid was added to each well. The plate was resealed and heated in an oven at 100° C. for 5 min. The plate was cooled on ice for 5-10 min, then analyzed (λex 370 nm, λem 430 nm) on a fluorescence plate reader (Molecular Devices Spectramax M3).
We adapted a reported epoxide capture assay [Nelis, H. J. C. F.; Sinsheimer, J. E. (1981) A sensitive fluorimetric procedure for the determination of aliphatic epoxides under physiological conditions. Anal. Biochem. 115, 151-157.] to 96-well plate format to detect formation of the epoxyketone products semiquantitatively. Each β-ketoacid substrate 11 was incubated with recombinant, purified EpnF (1 h), then reacted with nicotinamide and acetophenone (1 h) to form a fluorescent 1,6-naphthyridinone 24. The fluorescent signals were normalized to that resulting from the known substrate β-ketoacid 11n as a positive control [Zabala, D.; Cartwright, J. W.; Roberts, D. M.; Law, B. J. C.; Song, L.; Samborskyy, M.; Leadlay, P. F.; Micklefield, J.; Challis, G. L. (2016) A flavin-dependent decarboxylase-dehydrogenase-monooxygenase assembles the warhead of α,β-epoxyketone proteasome inhibitors. J. Am. Chem. Soc. 138, 4342-4345.].

For data set [2], the target named is T1, EpnF. In words: Enzyme kinetic analysis by SPE-MS/MS assay. In kind it is biochemical. The note with it: for efficiency of EpnF-catalyzed conversion compared to parent substrate 11a (in words): quantitative SPE-MS/MS assay. On the procedure: (§1) SPE-MS/MS analyses were carried out on an Agilent RapidFire 365 High-Throughput Mass Spectrometry System with 6495 triple quadrupole mass spectrometer. Determination of initial velocity: EpnF stock at 100 μM was diluted 10-fold in EpnF Buffer to a 10 μM working solution, which was further diluted to 8 concentrations (10-0.005 μM) in EpnF Buffer (intermediate volume 1350 μL, concentrations calculated for 1500 μL theoretical final volume corresponding to addition of substrate solutions below). The 8 EpnF enzyme dilutions were aliquoted (90 μL) into the corresponding 8 tubes of PCR tube strips (12 strips, one per time point; Thermo Scientific, AB-2000). The β-ketoacid 11 (20 mM in EtOH) was diluted to 10 μM in EpnF Buffer, then 10 μL of this solution was added to each of the tubes (1 μM final concentration, 100 μL final volume) to initiate the reaction. Samples were incubated in a heated shaker at 37° C. and 225 rpm for up to 120 min, and one tube strip was removed at each time point. Each tube was quenched with 5% formic acid in EpnF Buffer (100 μL), pipetted vigorously, and flash frozen on dry ice. Samples were thawed then centrifuged to precipitate protein and transferred to a conical-bottom 96-well plate (Thermo Scientific/Nunc, 249944) for SPE-MS/MS analysis. Measurement of Km and Vmax: Using the data from the initial velocity experiments above, an appropriate EpnF enzyme concentration was selected for each β-ketoacid 11 at which the rate of conversion to the epoxyketone 12 remained linear at 10 min (0.50 μM for 11n and 0.05 μM for all other substrates). Each substrate (20 mM in EtOH) was diluted to 1 mM in EpnF Buffer, then diluted to 8 concentrations (100-0.5 μM) in EpnF Buffer (intermediate volume 1350 μL, concentrations calculated for 1500 μL theoretical volume corresponding to addition of enzyme solutions below). The 8 substrate dilutions were aliquoted (90 μL) into the corresponding 8 tubes of PCR tube strips (12 strips, one per time point; Thermo Scientific, AB-2000). The EpnF enzyme stock solution was diluted in EpnF Buffer to the appropriate concentration for each substrate, then 10 μL of this solution was added to each of the tubes (100 μL final volume) to initiate the reaction. For the 0-min time point, 5% formic acid in EpnF Buffer was added to the β-ketoacid substrate before addition of the enzyme. Samples were incubated in a heated shaker at 37° C. and 225 rpm for up to 10 min, and one tube strip was removed at each time point. Each tube was quenched by addition of 5% formic acid in EpnF Buffer (100 μL), pipetted vigorously, and flash frozen on dry ice. Samples were thawed then centrifuged to precipitate proteins and the supernatants were transferred to a conical-bottom 96-well plate (Thermo Scientific/Nunc, 249944) for SPE-MS/MS analysis. Km and Vmax values for each substrate were calculated by Michaelis-Menten analysis. To obtain a quantitative assessment of EpnF substrate specificity, we developed a kinetic assay (10 min) using SPE-MS/MS (solid-phase extraction/triple quadrupole mass spectrometry; Agilent RapidFire 365 with 6495 MS) to enable direct detection of both substrates and products.

For data set [3] the following is noted: during isolation and characterization; cited from earlier work.
Substrate in data set [4]: C=C(C)C[C@H](NC(=O)[C@H](CO)NC(=O)CCCCC(C)C)C(=O)C(C)(C)C(=O)O
Kind of data set: Enzyme kinetic analysis by SPE-MS/MS assay. In kind it is biochemical. The note with it: other: 0.05 μM EpnF; 37.0 °C. Here is the method: as §1

Substrate in data set [5]: CC(C)CCCCC(=O)N[C@@H](C)C(=O)N[C@@H](CC(C)C)C(=O)C(C)(C)C(=O)O
In words: Enzyme kinetic analysis by SPE-MS/MS assay. Format: biochemical. Conditions: other: 0.05 μM EpnF; 37.0 °C. On the procedure:
as §1

Substrate in data set [6]: CC(C)CCCCC(=O)N[C@@H](CO)C(=O)N[C@@H](CC(C)C)C(=O)C(C)(C)C(=O)O
Kind of data set: Enzyme kinetic analysis by SPE-MS/MS assay. In kind it is biochemical. The note with it: other: 0.05 μM EpnF; 37.0 °C. Here is the method: as §1

Substrate in data set [7]: CC(C)CCCCC(=O)N[C@H](C(=O)N[C@@H](CC(C)C)C(=O)C(C)(C)C(=O)O)C(C)O
In words: Enzyme kinetic analysis by SPE-MS/MS assay. Conditions: other: 0.05 μM EpnF; 37.0 °C. In kind it is biochemical. On the procedure: as §1

Substrate in data set [8]: CC(C)C[C@H](NC(=O)[C@H](CO)NC(=O)c1ccccc1)C(=O)C(C)(C)C(=O)O
Kind of data set: Enzyme kinetic analysis by SPE-MS/MS assay. Format: biochemical. Conditions: other: 0.05 μM EpnF; 37.0 °C. On the procedure: as §1

Substrate in data set [9]: CCCC(=O)N[C@@H](CO)C(=O)N[C@@H](CC(C)C)C(=O)C(C)(C)C(=O)O
Kind of data set: Enzyme kinetic analysis by SPE-MS/MS assay. In kind it is biochemical. The note with it: other: 0.50 μM EpnF; 37.0 °C. On the procedure: as §1

In the case of `C=C(C)C[C@H](NC(=O)[C@H](CO)NC(=O)CCCCC(C)C)C(=O)C(C)(C)C(=O)O` [Compound 11b, (S)-4-((S)-3-Hydroxy-2-(6-methylheptanamido)propanamido)-2,2,6-trimethyl-3-oxohept-6-enoic acid], the “EpnF-catalyzed formation of epoxyketone (epoxide capture)” value on EpnF [1] (250 μM β-ketoacid substrate, 1 h, positive control 11n (FIG. 1)) is on record as “lower levels”. Also, the “converted more efficiently than 11n” value at EpnF [2] (relative to 11n) is “≈ 20 fold”.

As for `CC(C)CCCCC(=O)N[C@H](C(=O)N[C@@H](CC(C)C)C(=O)C(C)(C)C(=O)O)C(C)C` [Compound 11k, (4S)-2,2,6-Trimethyl-4-[(2S)-3-methyl-2-(6-methylheptanamido)butanamido]-3-oxoheptanoic acid], the “EpnF-catalyzed conversion to epoxyketone (epoxide capture)” value (“EpnF-catalyzed conversion to epoxyketone” for short) at EpnF [1] was “tolerated to a lesser degree”. Also, the “efficiency of EpnF-catalyzed conversion compared to parent substrate 11a (in words)” value on EpnF [2] is “low conversion”.

Consider `CC(C)CCCCC(=O)N[C@H](C(=O)N[C@@H](CC(C)C)C(=O)C(C)(C)C(=O)O)C(C)O` (stereo partly drawn) [Compound 11l, (4S)-4-[(2S)-3-Hydroxy-2-(6-methylheptanamido)butanamido]-2,2,6-trimethyl-3-oxoheptanoic acid], for which the “EpnF-catalyzed conversion to epoxyketone” value on EpnF [1] is “tolerated”. Further, at EpnF [2], the “efficiency of EpnF-catalyzed conversion compared to parent substrate 11a (in words)” value is given as “slightly lower efficiency”.

For the molecule `CCCC(=O)N[C@@H](CO)C(=O)N[C@@H](CC(C)C)C(=O)C(C)(C)C(=O)O` [Compound 11n, (4S)-4-((S)-2-Butyramido-3-hydroxypropanamido)-2,2,6-trimethyl-3-oxoheptanoic acid], the “EpnF-catalyzed conversion to epoxyketone” value on EpnF [1] was “permitted”. Also, the spontaneous decarboxylation result in [3] was “can undergo spontaneous decarboxylation”.

`CC(C)C[C@H](NC(=O)[C@H](CO)NC(=O)c1ccccc1)C(=O)C(C)(C)C(=O)O` [Compound 11o, (4S)-4-[(2S)-3-Hydroxy-2-(phenylformamido)propanamido]-2,2,6-trimethyl-3-oxoheptanoic acid]: the “EpnF-catalyzed conversion to epoxyketone” value on EpnF [1] was “also tolerated”. Moreover, the “efficiency of EpnF-catalyzed conversion compared to parent substrate 11a (in words)” value at EpnF [2] is “slightly lower efficiency”.

For `CCCCCCCCCC(=O)N[C@@H](CO)C(=O)N[C@@H](CC(C)C)C(=O)C(C)(C)C(=O)O` [Compound 11q, (4S)-4-[(2S)-2-Decanamido-3-hydroxypropanamido]-2,2,6-trimethyl-3-oxoheptanoic acid], the “EpnF-catalyzed conversion to epoxyketone” value at EpnF [1] is listed as “permitted”. In addition, at EpnF [2] (EpnF Buffer), the “solubility (kinetic parameters could not be determined)” value is “solubility limitations”.

B1: EpnF (Streptomyces hygroscopicus) (protein)
chain: MSDSKSVNLFHRHGVPSFLEGIYQGRFEWDMISNFVAQDSADEKAGDAAVERLTDILRNRVNPTAVDATRELPEGLLEELRRTGFLNLQDSPDIGGLGLSSYNTFRVVQAAASWSVPVALVLGIQTAVGSGTYLRALPPGELHSYVEQRLLDGIISGSADTEPAGASNSARRTRAVPTDDGEAFLLTGEKIHIGNGPIADIVTVSAMLDEDGQDRPRLFFVETSDPGFSIRSRHEFMGVKGFPNAALVLDGVRVPRERMIVEVDPDTEVRITAELTMAVVRGRLHLITAPSLAISKLCLEWSRNFVNRRTIDGRPLGAREEIQHMVSSTMADVFAIQALAEWSLLPADQPDLGLNVAFEQNVTKAISAEICWRAADRTMDLLAGEGFETAPSKARRGAPALPLERFYRDARNLRISGGVSFLLQFWAARMSQFTYYGPDHAGQSAALSQDGGQQPCTDGLDPLNADHLRFAAAETRRLGAACQKFAADHPAPGLYEHQHRLIAFSRIADEILTMSVVLAKAARLHHEGRTEAQDLAAIYCAHARDRLAALWRQAEPVTAGPDHAAVSDAWLSGDDTYASLITGVITDVPPTADTHPGKR
The term Km denotes the concentration of substrate that gives half-maximal velocity. For orientation: kcat means the maximal rate divided by the concentration of active sites. A word on the kcat/Km: it is the turnover number divided by the Michaelis constant. On to B1, for which the Km in [4] was determined as 17.3 µM; in [5], 4.70 µM; in data set [6], 11.6 µM; in [7] it was 13.3 µM; in data set [8], 6.13 µM; in [9] it was 23.1 µM. The kcat in [4] was found to be 0.114 s⁻¹; in data set [5], 0.025 s⁻¹; in [6] it was 0.071 s⁻¹; in data set [7], 0.016 s⁻¹; in data set [8] it was 0.0125 s⁻¹; in data set [9] it was 0.0067 s⁻¹. In addition, the kcat/Km in data set [4] was 6580 M⁻¹ s⁻¹; in [5] it was 5320 M⁻¹ s⁻¹; in data set [6], 6120 M⁻¹ s⁻¹; in [7] it was 1200 M⁻¹ s⁻¹; in data set [8], 1880 M⁻¹ s⁻¹; in data set [9], 290 M⁻¹ s⁻¹.
